This data set in a line: background-corrected fluorescence of 3'-dye-labeled ssDNA relative to brightest sequence (3'-GCGCG) (fraction); higher = brighter dye fluorescence (less quenching). In a few lines:
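By light-directed phosphoramidite synthesis, single-stranded DNA ending in a 3' Cy3 or Cy5 dye beside each of 1024 permuted pentamers was built on glass slides. Scanning at 532 or 635 nm took place before and after overnight ethylenediamine/ethanol deprotection. Data are means of 10 features per array over at least 3 syntheses. Fluorescence is corrected for unlabeled-oligo background and scaled to the brightest sequence.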

Among the data in the supplement of paper PMC9428881 are background-corrected fluorescence values, retold here.

± gives the standard error.

Regarding “TTTTTTGATGATGATGCTGCTTTTTTTTTTTTTTTCCCAA [AACCC]”, the background-corrected fluorescence runs as follows: (dye: Cy3 (3' terminal)) 0.485 ± 0.031; (dye: Cy5 (3' terminal)) 0.386 ± 0.022.
Regarding “TTTTTTGCTGAGCATGATGATTTTTTTTTTTTTTTACTCC [CCTCA]”, the background-corrected fluorescence by setting is: (dye: Cy3 (3' terminal)) 0.378 ± 0.023; (dye: Cy5 (3' terminal)) 0.3 ± 0.044.
“TTTTTTCAGCAGCATCAGCATTTTTTTTTTTTTTTGTTGT” gave a background-corrected fluorescence (dye: Cy3 (3' terminal)) of 0.679 ± 0.031 and a background-corrected fluorescence (dye: Cy5 (3' terminal)) of 0.494 ± 0.027.
For “TTTTTTCATGCTCATCATGATTTTTTTTTTTTTTTGAGGC [CGGAG]” the same measures were 0.585 ± 0.015 and 0.465 ± 0.033.
For the sequence “TTTTTTGCTGATGCGCATGCTTTTTTTTTTTTTTTACATA [ATACA]”, the background-corrected fluorescence came out at 0.591 ± 0.025 (dye: Cy3 (3' terminal)) and 0.403 ± 0.038 (dye: Cy5 (3' terminal)).
With “TTTTTGCATGATCATCATGCTTTTTTTTTTTTTTTTCGGA [AGGCT]”, the background-corrected fluorescence turned out to be 0.734 ± 0.076 (dye: Cy3 (3' terminal)) and 0.648 ± 0.024 (dye: Cy5 (3' terminal)).
Taken in the same sequence, the figures for “TTTTTTCATGCTCATGCTGATTTTTTTTTTTTTTTGAGAC [CAGAG]” were 0.476 ± 0.015 and 0.357 ± 0.018.
For “TTTTTTCATGCGCAGCATGATTTTTTTTTTTTTTTGATTC [CTTAG]” the same measures were 0.451 ± 0.026 and 0.317 ± 0.02.
Taken in the same sequence, the figures for “TTTTTTGATGATGATCATGATTTTTTTTTTTTTTTCCCGC [CGCCC]” were 0.51 ± 0.013 and 0.419 ± 0.034.
“TTTTTTGCGCAGCATGATGATTTTTTTTTTTTTTTATTCC [CCTTA]”: the background-corrected fluorescence was 0.404 ± 0.016 (dye: Cy3 (3' terminal)) and 0.272 ± 0.02 (dye: Cy5 (3' terminal)).
For “TTTTTTGATGCTCATGATGCTTTTTTTTTTTTTTTCAGCA [ACGAC]” the same measures were 0.514 ± 0.019 and 0.448 ± 0.027.
Turning to “TTTTTGCATCATCATCATGCTTTTTTTTTTTTTTTTGGGA [AGGGT]”, the background-corrected fluorescence came to 0.757 ± 0.01 (dye: Cy3 (3' terminal)) and 0.725 ± 0.054 (dye: Cy5 (3' terminal)).
Take “TTTTTTCAGCAGCATGCTGATTTTTTTTTTTTTTTGTTAC [CATTG]”: the background-corrected fluorescence by setting is: (dye: Cy3 (3' terminal)) 0.447 ± 0.024; (dye: Cy5 (3' terminal)) 0.338 ± 0.055.
For “TTTTTTGAGCATGCGCAGCATTTTTTTTTTTTTTTCTATT [TTATC]” the same measures were 0.527 ± 0.047 and 0.402 ± 0.056.
Taken in the same sequence, the figures for “TTTTTTGCGCATGATGCTGATTTTTTTTTTTTTTTATCAC [CACTA]” were 0.399 ± 0.025 and 0.325 ± 0.032.
For “TTTTTTGCTGATCAGCATGATTTTTTTTTTTTTTTACGTC [CTGCA]” the same measures were 0.448 ± 0.016 and 0.373 ± 0.025.
Turning to “TTTTTTGCTGATGCTGCTGCTTTTTTTTTTTTTTTACAAA [AAACA]”, the background-corrected fluorescence (dye: Cy3 (3' terminal)) was found to be 0.581 ± 0.022 and the background-corrected fluorescence (dye: Cy5 (3' terminal)) worked out at 0.499 ± 0.064.
Taken in the same sequence, the figures for “TTTTTTCATGATGCTCATGATTTTTTTTTTTTTTTGCAGC [CGACG]” were 0.508 ± 0.0059 and 0.402 ± 0.045.
For “TTTTTTGAGCATGAGCAGCATTTTTTTTTTTTTTTCTCTT” the same measures were 0.49 ± 0.0076 and 0.334 ± 0.024.
Taken in the same sequence, the figures for “TTTTTTCAGCATCAGCATGCTTTTTTTTTTTTTTTGTGTA [ATGTG]” were 0.595 ± 0.019 and 0.434 ± 0.027.
Regarding “TTTTTTCAGCAGCAGCATGATTTTTTTTTTTTTTTGTTTC [CTTTG]”, the background-corrected fluorescence by setting is: (dye: Cy3 (3' terminal)) 0.409 ± 0.024; (dye: Cy5 (3' terminal)) 0.306 ± 0.036.
For “TTTTTTGAGCAGCATGATGCTTTTTTTTTTTTTTTCTTCA [ACTTC]” the same measures were 0.455 ± 0.027 and 0.382 ± 0.041.
As for “TTTTTGCATGCTGCTCATCATTTTTTTTTTTTTTTTAAGG [GGAAT]”, the background-corrected fluorescence (dye: Cy3 (3' terminal)) was found to be 0.627 ± 0.024 and the background-corrected fluorescence (dye: Cy5 (3' terminal)) is 0.518 ± 0.045.
Taken in the same sequence, the figures for “TTTTTTGATGCTGATGCTGATTTTTTTTTTTTTTTCACAC” were 0.392 ± 0.006 and 0.311 ± 0.024.
Taken in the same sequence, the figures for “TTTTTTGATGCGCATCATCATTTTTTTTTTTTTTTCATGG [GGTAC]” were 0.6391 ± 0.0053 and 0.521 ± 0.075.
Taken in the same sequence, the figures for “TTTTTTGCTCATGAGCATGATTTTTTTTTTTTTTTAGCTC [CTCGA]” were 0.408 ± 0.042 and 0.323 ± 0.024.
On to “TTTTTTGCTGATGCTCATGATTTTTTTTTTTTTTTACAGC [CGACA]”, for which the background-corrected fluorescence by setting is: (dye: Cy3 (3' terminal)) 0.508 ± 0.023; (dye: Cy5 (3' terminal)) 0.404 ± 0.024.
For “TTTTTTCATCATGATGCTCATTTTTTTTTTTTTTTGGCAG [GACGG]”, the background-corrected fluorescence is, setting by setting: (dye: Cy3 (3' terminal)) 0.527 ± 0.028; (dye: Cy5 (3' terminal)) 0.426 ± 0.017.
In the case of “TTTTTTGATGATGAGCATCATTTTTTTTTTTTTTTCCCTG [GTCCC]”, the background-corrected fluorescence reads like this: (dye: Cy3 (3' terminal)) 0.528 ± 0.048; (dye: Cy5 (3' terminal)) 0.364 ± 0.024.
For “TTTTTTGATCATCATCATGATTTTTTTTTTTTTTTCGGGC” the same measures were 0.576 ± 0.032 and 0.487 ± 0.024.
Taken in the same sequence, the figures for “TTTTTTGCTGATGATCATCATTTTTTTTTTTTTTTACCGG [GGCCA]” were 0.69 ± 0.03 and 0.551 ± 0.059.
Taken in the same sequence, the figures for “TTTTTTGCTGAGCATGATCATTTTTTTTTTTTTTTACTCG [GCTCA]” were 0.571 ± 0.028 and 0.418 ± 0.03.
Consider “TTTTTTGCTGATGAGCATCATTTTTTTTTTTTTTTACCTG [GTCCA]”, for which the background-corrected fluorescence stood at 0.499 ± 0.023 (dye: Cy3 (3' terminal)) and 0.384 ± 0.02 (dye: Cy5 (3' terminal)).
On to “TTTTTTGATGATCATGCTGATTTTTTTTTTTTTTTCCGAC [CAGCC]”, for which the background-corrected fluorescence is, setting by setting: (dye: Cy3 (3' terminal)) 0.464 ± 0.024; (dye: Cy5 (3' terminal)) 0.374 ± 0.068.
Taken in the same sequence, the figures for “TTTTTGCATGCTCATGAGCATTTTTTTTTTTTTTTTAGCT [TCGAT]” were 0.57 ± 0.025 and 0.42 ± 0.035.
As for “TTTTTTGATGATGATGCGCATTTTTTTTTTTTTTTCCCAT [TACCC]”, the background-corrected fluorescence runs as follows: (dye: Cy3 (3' terminal)) 0.49 ± 0.03; (dye: Cy5 (3' terminal)) 0.356 ± 0.015.
In turn, “TTTTTTGCTCATGATGATCATTTTTTTTTTTTTTTAGCCG [GCCGA]” had a background-corrected fluorescence (dye: Cy3 (3' terminal)) of 0.554 ± 0.018 and a background-corrected fluorescence (dye: Cy5 (3' terminal)) of 0.437 ± 0.029.
Taken in the same sequence, the figures for “TTTTTGCATGCGCAGCAGCATTTTTTTTTTTTTTTTATTT” were 0.539 ± 0.04 and 0.381 ± 0.021.
Taken in the same sequence, the figures for “TTTTTTCATGCGCATCATGCTTTTTTTTTTTTTTTGATGA [AGTAG]” were 0.653 ± 0.035 and 0.518 ± 0.062.
For “TTTTTTGCTCATGCGCAGCATTTTTTTTTTTTTTTAGATT” the same measures were 0.565 ± 0.035 and 0.41 ± 0.018.
The sequence “TTTTTTGAGCATGCTCAGCATTTTTTTTTTTTTTTCTAGT [TGATC]” showed a background-corrected fluorescence (dye: Cy3 (3' terminal)) of 0.612 ± 0.019 and a background-corrected fluorescence (dye: Cy5 (3' terminal)) of 0.451 ± 0.029.
For “TTTTTTCATCAGCATGCGCATTTTTTTTTTTTTTTGGTAT [TATGG]”, the background-corrected fluorescence is, setting by setting: (dye: Cy3 (3' terminal)) 0.525 ± 0.017; (dye: Cy5 (3' terminal)) 0.411 ± 0.025.
Taken in the same sequence, the figures for “TTTTTTGCTCAGCATGCTCATTTTTTTTTTTTTTTAGTAG [GATGA]” were 0.605 ± 0.054 and 0.46 ± 0.032.
Taken in the same sequence, the figures for “TTTTTTCATGCGCATGAGCATTTTTTTTTTTTTTTGATCT [TCTAG]” were 0.456 ± 0.055 and 0.354 ± 0.017.
For “TTTTTTGCTGATGCGCATCATTTTTTTTTTTTTTTACATG [GTACA]” the same measures were 0.519 ± 0.03 and 0.409 ± 0.023.
Turning to “TTTTTGCATCATGAGCATGCTTTTTTTTTTTTTTTTGCTA [ATCGT]”, the background-corrected fluorescence is, setting by setting: (dye: Cy3 (3' terminal)) 0.55 ± 0.032; (dye: Cy5 (3' terminal)) 0.399 ± 0.041.
For “TTTTTTGCTCATCATCATGCTTTTTTTTTTTTTTTAGGGA” the same measures were 0.707 ± 0.036 and 0.642 ± 0.037.
Consider “TTTTTTGAGCAGCATGATCATTTTTTTTTTTTTTTCTTCG [GCTTC]”, for which the background-corrected fluorescence by setting is: (dye: Cy3 (3' terminal)) 0.477 ± 0.0068; (dye: Cy5 (3' terminal)) 0.384 ± 0.019.
Taken in the same sequence, the figures for “TTTTTTCATGCTGCTCAGCATTTTTTTTTTTTTTTGAAGT” were 0.661 ± 0.012 and 0.529 ± 0.056.
For “TTTTTTGCTCATGATGATGATTTTTTTTTTTTTTTAGCCC [CCCGA]” the same measures were 0.393 ± 0.022 and 0.304 ± 0.018.
For “TTTTTGCATGATGCGCATCATTTTTTTTTTTTTTTTCATG [GTACT]” the same measures were 0.524 ± 0.054 and 0.377 ± 0.019.
As for “TTTTTTCATGCTGCTCATCATTTTTTTTTTTTTTTGAAGG [GGAAG]”, the background-corrected fluorescence (dye: Cy3 (3' terminal)) is 0.607 ± 0.026 and the background-corrected fluorescence (dye: Cy5 (3' terminal)) stood at 0.512 ± 0.025.
On to “TTTTTGCATGATCATGATCATTTTTTTTTTTTTTTTCGCG [GCGCT]”, for which the background-corrected fluorescence by setting is: (dye: Cy3 (3' terminal)) 0.93 ± 0.023; (dye: Cy5 (3' terminal)) 0.964 ± 0.064.
In the case of “TTTTTTCATGCTGCTGATGCTTTTTTTTTTTTTTTGAACA [ACAAG]”, the background-corrected fluorescence (dye: Cy3 (3' terminal)) turned out to be 0.505 ± 0.013 and the background-corrected fluorescence (dye: Cy5 (3' terminal)) turned out to be 0.394 ± 0.024.
For “TTTTTTGCTCATCAGCATCATTTTTTTTTTTTTTTAGGTG [GTGGA]” the same measures were 0.585 ± 0.025 and 0.482 ± 0.017.
Taken in the same sequence, the figures for “TTTTTTGCGCATCATGCTGATTTTTTTTTTTTTTTATGAC [CAGTA]” were 0.469 ± 0.0096 and 0.376 ± 0.02.
For “TTTTTTGCTGCTGCTCATGATTTTTTTTTTTTTTTAAAGC [CGAAA]” the same measures were 0.538 ± 0.018 and 0.426 ± 0.021.
With “TTTTTGCATGAGCATCATGCTTTTTTTTTTTTTTTTCTGA [AGTCT]”, the background-corrected fluorescence by setting is: (dye: Cy3 (3' terminal)) 0.611 ± 0.018; (dye: Cy5 (3' terminal)) 0.56 ± 0.037.
